Columns and labels:
LNCaP cells = test: JNG assay, co-culture with LNCaP cells; format: cell-based; conditions: for GFP induction: LNCaP cells, only in the presence of SAR-adaptor PSMA-USC76-chVH-G4S-ULBP2-S3 (SEQ ID NO: 23114)
Experimental: Cellular supernatant is collected and assayed for the induction of cytokines (e.g., IL2).
JNG (Jurkat cells expressing EGFP under an NFAT promoter) were infected with lentiviral vectors encoding different single chain and multi-chain SARs by spinfection in the presence of 8 µg/ml of Polybrene® (Sigma, Catalog no. H9268). The Jurkat-NFAT-GFP cells are engineered in such a way that the IL-2 promoter, which carries NFAT binding sites, is cloned upstream of the GFP gene. These cells have been used to study signaling via TCR and CAR. The different SARs were stably expressed in Jurkat NFAT-GFP cells by lentiviral mediated gene transfer, followed by selection with puromycin or blasticidin. No drug selection was used in case the construct lacked an antibiotic resistance gene. The SAR-expressing Jurkat-NFAT-GFP cells were cocultured with the target cells at E:T ratio of approximately 1:2 for approximately 4 hours to 18 hours. When the interaction between SIRs and their target antigen results in activation of the NFAT pathway, GFP expression is induced. […] GFP expression was monitored by FACS analysis. The Jurkat-NFAT-GFP (parental) cells were used as control. The structure of different constructs can be determined based on their names. For example, the construct CD8SP-CD19-hu-mROO5-1-vL-[hTCRa-C SDVP]-F-F2A-Spe-IgHSP-Apa-CD20-vHH-2HCD25-G4S-CDl9-hu-mROO5-1-vH-Mlu-[hTCRb-KACIAH]-F-P2A-PAC has the following modules from 5′ to 3′ direction: a CD8 signal peptide (CD8SP), the CD19 targeting hu-mROO5-1 vL fragment (CD19-hu-mROO5-1), Xho1 cloning site, human TCRa constant chain containing CSDVP mutations (hTCRa-CSDVP), Furine cleavage site (F), F2A ribosomal skip sequence (F2A), SpeI site, human IgH signal peptide (IgHSP), Apa I restriction enzyme site, camelid CD20-2HCD25-VHH module targeting CD20, BamHI restriction enzyme site, Glycinex4-serine linker (G4S), BstI restriction enzyme site, CD19-hu-mROO5-1-vH fragment targeting CD19, Mlu I restriction enzyme site, human TCRb constant chain containing KACIAH mutations ([hTCRb-KACIAH]), Furine cleavage site (F), P2A ribosomal skip sequence and Puromycin resistance gene (PAC). The sequence of the other constructs in the table can be similarly determined from their names and by referring to the different Tables of this disclosure that provide the names and SEQ ID NO of the different modules. Alternatively, the composition and modular architecture of the different SAR constructs can be determined from their sequences by bioinformatics tools, including using nucleic acid and amino acids homology searches. A SAR is considered positive in the assay in case the SAR expressing Jurkat-NFAT-GFP cells show greater % GFP positive cells when cultured with the target cell line as compared to parental Jurkat-NFAT-GFP cells. The signs +/-, +, 2+ etc. after the name of the cell lines indicate the relative degree of positivity on the Jurkat-NFAT-GFP assay as measured by the % GFP positive cells after culture of the SAR expressing Jurkat-NFAT-GFP cells with that cell line above the % GFP cells observed in parental Jurkat NFAT-GFP cells serving as controls. In general, the number +/-, +, 2+, 3+, 4+, 5+ refer to approximately 5%, 10%, 20%, 30%, 40% and 50% GFP positive cells. The % of GFP induction in the above assay is dependent not only the relative strength of the SAR but also, among other factors, on the relative level of expression of the SAR in the JNG cells and the relative level of expression of the target antigen in the target cell line. To control for the difference in gene transduction efficiency of the different SAR constructs, the experiment was conducted with JNG cells transduced with SAR constructs co-expressing a drug resistance gene (e.g., puromycin or PAC) followed by drug selection to generate a stable population of SAR-expressing cells. […]

RAJI cells = test: JNG assay, co-culture with RAJI cells; format: cell-based; conditions: co-culture with RAJI cells
Method in brief: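 Jurkat NFAT-GFP (JNG) cells stably transduced with SARs by lentivirus, with drug selection where the construct carried a resistance gene, then co-cultured with target cells at E:T ~1:2 for ~4–18 h. % GFP-positive cells measured by FACS against parental JNG; +/- to 5+ correspond to ~5–50% GFP-positive.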

B1: SEQ ID NO: 22287: NKG2D-YA-G4Sx3-NKG2D-YA domain attached to the hu-mROO5-1 vH fragment of an Ab-TCR via a G4S linker (protein)
chain: MALPVTALLLPLALLLHAARPACEVQLLESGGGLIQPGGSLRLSCAASGFTFSSHAMTWVRQAPGKGLEWVSAISGSGDYTHYADSVKGRFTISRDNSKNTVYLQMNSLRAEDSAVYYCAKDEDGGSLLGHRGQGTLVTVSSGTGGGGSGGGGSGGGGSEFDIQMTQSPSSLSASVGDRVTITCKASDHINNWLAWYQQKPGQAPKLLIYGATTLETGVPSRFSGSGSGTDYTLTISSLQPEDFATYYCQQSWNTPWTFGQGTKLEIKRLEGQPKANPTVTLFPPSSEELQANKATLVCLISDFYPGAVTVAWKADGSPVKAGVETTKPSKQSNNKYAASSYLSLTPEQWKSHRSYSCQVTHEGSTVEKTVAPTECSGRADCGFTSESYQQGVLSATILYEILLGKATLYAVLVSALVLMAMVKRKDSRGRAKRSGSGATNFSLLKQAGDVEENPGPTSTMDWIWRILFLVGAATGAHSLFNQEVQIPLTESYCGPCPKNWICYKNNCYQFFDESKNWYESQASCMSQNASLLKVYSKEDQDLLKLVKSAHWMGLVHIPTNGSWQWEDGSILSPNLLTIIEMQKGDCALYASSFKGYIENCSTPNTYICMQRTVSGGGGSGGGGSGGGGDLFNQEVQIPLTESYCGPCPKNWICYKNNCYQFFDESKNWYESQASCMSQNASLLKVYSKEDQDLLKLVKSAHWMGLVHIPTNGSWQWEDGSILSPNLLTIIEMQKGDCALYASSFKGYIENCSTPNTYICMQRTVGSGGGGSGGGGSGGGGSFEQVQLQQPGAELVKPGASVKMSCKASGYAFSSYWINWMKQKPGQGLEWIGQIYPGDGDTNYNGKFKGRATLTADTSSSTAYMQLSSLTSEDSAVYFCARSITTVVGCAMDYWGQGTSVTVSSTRASTKGPSVFPLAPSSKSTSGGTAALGCLVKDYFPEPVTVSWNSGALTSGVHTFPAVLQSSGLYSLSSVVTVPSSSLGTQTYICNVNHKPSNTKVDKRVEPKSCIPEDTFFPSPESSCDVKLVEKSFETDTNLNFQNLSVIGFRILLLKVAGFNLLMTLRLWSSRAKRSGSGVKQTLNFDLLKLAGDVESNPGPSRGHMTEYKPTVRLATRDDVPRAVRTLAAAFADYPATRHTVDPDRHIERVTELQELFLTRVGLDIGKVWVADDGAAVAVWTTPESVEAGAVFAEIGPRMAELSGSRLAAQQQMEGLLAPHRPKEPAWFLATVGVSPDHQGKGLGSAVVLPGVEAAERAGVPAFLETSAPRNLPFYERLGFTVTADVEVPEGPRTWCMTRKPGA
LNCaP cells
  GFP induction: induction of GFP
RAJI cells
  GFP induction / activity: robust induction of GFP

B2: CD8SP-CD22-FHVH-24-PSMA71v2-chVH-Myc-CD8TM-BBZ-T2A-PAC (protein)
chain: MALPVTALLLPLALLLHAARPQLQLQESGPGLVKPSETLSLTCTVSGDSISSGDYYWGWIRQPPGKGLEWIGHIYYSGVTYYNPSLKSRVTISVDTSRNQFSLKLSSVTAADTAVYYCTREDSSNWRSRGQGTLVTVSSLESGGGGSFEVQLVESGGGVVQPGRSLRLSCAASGFSFSGYGMHWVRQAPGKGLEWVAYISYDGSNKYYADSVKGRFTISRDNSKNTLYLQMNSLRAEDTAVYYCAKDPAWGLRLGESSSYDFDIWGQGTMVTVSSTREQKLISEEDLAKPTTTPAPRPPTPAPTIASQPLSLRPEACRPAAGGAVHTRGLDFACDIYIWAPLAGTCGVLLLSLVITLYCKRGRKKLLYIFKQPFMRPVQTTQEEDGCSCRFPEEEEGGCELRVKFSRSADAPAYQQGQNQLYNELNLGRREEYDVLDKRRGRDPEMGGKPRRKNPQEGLYNELQKDKMAEAYSEIGMKGERRRGKGHDGLYQGLSTATKDTYDALHMQALPPRSSGSGEGRGSLLTCGDVEENPGPHMTEYKPTVRLATRDDVPRAVRTLAAAFADYPATRHTVDPDRHIERVTELQELFLTRVGLDIGKVWVADDGAAVAVWTTPESVEAGAVFAEIGPRMAELSGSRLAAQQQMEGLLAPHRPKEPAWFLATVGVSPDHQGKGLGSAVVLPGVEAAERAGVPAFLETSAPRNLPFYERLGFTVTADVEVPEGPRTWCMTRKPGA
LNCaP cells; PSMA-expressing LNCaP cells
  GFP induction (relative degree of positivity): +5.5
RAJI cells
  GFP induction / activity: able to effectively induce GFP

B3: SEQ ID NO: 22286: engineered NKG2D-YA domain attached to the N-terminus of the IgCL fragment of a SAR with Ab-TCR backbone (protein)
chain: MALPVTALLLPLALLLHAARPACLFNQEVQIPLTESYCGPCPKNWICYKNNCYQFFDESKNWYESQASCMSQNASLLKVYSKEDQDLLKLVKSAHWMGLVHIPTNGSWQWEDGSILSPNLLTIIEMQKGDCALYASSFKGYIENCSTPNTYICMQRTVLEGQPKANPTVTLFPPSSEELQANKATLVCLISDFYPGAVTVAWKADGSPVKAGVETTKPSKQSNNKYAASSYLSLTPEQWKSHRSYSCQVTHEGSTVEKTVAPTECSPIKTDVITMDPKDNCSKDANDTLLLQLTNTSAYYMYLLLLLKSVVYFAIITCCLLRRTAFCCNGEKSRAKRSGSGATNFSLLKQAGDVEENPGPTSATMDWIWRILFLVGAATGAHSGPQVQLQESGGGLAQAGGSLRLSCAASGRTFSMGWFRQAPGKEREFVAAITYSGGSPYYASSVRGRFTISRDNAKNTVYLQMNSLKPEDTAVYYCAANPTYGSDWNAENWGQGTQVTVSSGSGGGGSGGGGSGGGGSFEQVQLQQPGAELVKPGASVKMSCKASGYAFSSYWINWMKQKPGQGLEWIGQIYPGDGDTNYNGKFKGRATLTADTSSSTAYMQLSSLTSEDSAVYFCARSITTVVGCAMDYWGQGTSVTVSSTRASTKGPSVFPLAPSSKSTSGGTAALGCLVKDYFPEPVTVSWNSGALTSGVHTFPAVLQSSGLYSLSSVVTVPSSSLGTQTYICNVNHKPSNTKVDKRVEPKSCEVKTDSTDHVKPKETENTKQPSKSCHKPKAIVHTEKVNMMSLTVLGLRMLFAKTVAVNFLLTAKLFFLRAKRSGSGVKQTLNFDLLKLAGDVESNPGPSRGHMTEYKPTVRLATRDDVPRAVRTLAAAFADYPATRHTVDPDRHIERVTELQELFLTRVGLDIGKVWVADDGAAVAVWTTPESVEAGAVFAEIGPRMAELSGSRLAAQQQMEGLLAPHRPKEPAWFLATVGVSPDHQGKGLGSAVVLPGVEAAERAGVPAFLETSAPRNLPFYERLGFTVTADVEVPEGPRTWCMTRKPGA
LNCaP cells
  GFP induction: induction of GFP
RAJI cells
  GFP induction / activity: robust induction of GFP
